In PMC12670495 (Molecular Pharmaceutics, 2025):

What was measured:
Settings in all cases: both partners purified
[1] = target: T1, Prostate-specific membrane antigen (PSMA), human (Homo sapiens, UniProt Q04609); assay: SPR; Biacore T200, multicycle kinetics; antibody captured on a Protein G chip (~50 RU), PSMA as analyte 25 to 1.5625 nM in HBS-EP+, 35 μL/min, association 600 s, dissociation 2400 s; 1-to-1 binding model with global Rmax
T1 construct: human FOLH1 (PSMA), UniProt Q04609; The methods of the multicycle SPR say only 'PSMA (R&D Systems)'; R&D Systems' recombinant human PSMA is, as far as recalled, the extracellular domain (about K44-A750) with a His tag; also called Human FOLH1; human PSMA; source: bought: R&D Systems (multicycle SPR)

mouse PSMA [2] = target: T2, mouse PSMA (Mus musculus, UniProt O35409); assay: SPR; Biacore T200, single-cycle kinetics, 25 °C, HBS-EP+; antibody-DOTA captured on a Protein G chip (~50 RU); PSMA as analyte, three-point 2-fold dilution 12.5-50 nM, 40 uL/min; association 200 s, dissociation 1500 s; Langmuir 1:1 fit
T2 construct: mouse prostate-specific membrane antigen (PSMA), purified protein; also called PSMA (Mouse); murine PSMA
T2 sequence (O35409 whole entry): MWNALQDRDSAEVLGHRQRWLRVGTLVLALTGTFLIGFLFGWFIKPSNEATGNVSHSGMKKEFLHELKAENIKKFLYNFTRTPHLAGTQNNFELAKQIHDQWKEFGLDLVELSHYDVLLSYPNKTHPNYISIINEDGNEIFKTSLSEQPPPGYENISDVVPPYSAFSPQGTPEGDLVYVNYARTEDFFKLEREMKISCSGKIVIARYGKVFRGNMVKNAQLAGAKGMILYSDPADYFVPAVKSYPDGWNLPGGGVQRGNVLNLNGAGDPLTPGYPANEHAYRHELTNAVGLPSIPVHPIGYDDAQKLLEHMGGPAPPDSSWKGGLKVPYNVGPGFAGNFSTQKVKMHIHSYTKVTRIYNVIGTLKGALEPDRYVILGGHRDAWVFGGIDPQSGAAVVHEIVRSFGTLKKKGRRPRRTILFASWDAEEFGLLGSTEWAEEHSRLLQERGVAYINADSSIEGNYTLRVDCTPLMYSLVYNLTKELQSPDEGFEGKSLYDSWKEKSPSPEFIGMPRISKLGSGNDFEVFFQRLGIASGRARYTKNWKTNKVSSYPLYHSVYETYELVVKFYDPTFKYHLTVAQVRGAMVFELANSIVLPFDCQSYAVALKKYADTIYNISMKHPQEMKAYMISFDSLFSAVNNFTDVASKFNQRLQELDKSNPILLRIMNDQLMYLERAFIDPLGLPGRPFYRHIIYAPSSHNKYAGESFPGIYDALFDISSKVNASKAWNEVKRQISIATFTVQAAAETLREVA

mouse PSMA [3] = target: T3, mouse PSMA (Mus musculus, UniProt O35409); assay: SPR; Biacore T200, single-cycle kinetics at 25 °C; DOTA-conjugated antibodies captured on a Protein G chip (~50 RU), PSMA as analyte 12.5 to 50 nM in HBS-EP+, 40 μL/min; Langmuir (1:1) model
T3 construct: PSMA (Folh1) of mouse; also called murine PSMA
T3 sequence (O35409 whole entry): as above

| Binder | Kd [1] | koff [1] | kon [1] | binding result (mouse PSMA [2]) | binding result (mouse PSMA [3]) |
| --- | --- | --- | --- | --- | --- |
| ANT4044 IgG1 (antibody, V domains shown, VH of the humanized antibody ANT4044 (derived from murine J591); IgG1 heavy chain constant region, unmodified; VK of the humanized antibody ANT4044; constant region of the light chain is not described; IgG1; also called unmodified IgG1; ANT4044 unmodified IgG1 construct; source: CHO cells, transiently transfected; purified (Protein A, preparative SEC); copies: 2 + 2) VH: EVQLVQSGAEVKKPGASVKVSCKASGYTFTEYTIHWVRQAPGKGLEWIGNINPNNGGTTYNQKFEDRVTITVDKSTSTAYMELSSLRSEDTAVYYCAAGWNFDYWGQGTTVTVSS VL: DIQMTQSPSTLSASVGDRVTITCKASQDVGTAVDWYQQKPGQAPKLLIYWASTRHTGVPDRFSGSGSGTDFTLTISRLQPEDFAVYYCQQYNSYPLTFGQGTKVDIK | 0.734 nM | 7.88e-05 s⁻¹ | 107000 M⁻¹ s⁻¹ |  |  |
| ANT4044 IgG4 (S228P, L235E, H310A, H435Q) (antibody, V domains shown, VH of ANT4044, as the heavy chain of m1; IgG4 heavy chain constant region with S228P, L235E, H310A and H435Q; VK of ANT4044, as the light chain of m1; constant region of the light chain is not described, as the light chain of m1; IgG4; also called modified IgG4; source: CHO cells, transiently transfected; purified (Protein G, preparative SEC); copies: 2 + 2) VH: EVQLVQSGAEVKKPGASVKVSCKASGYTFTEYTIHWVRQAPGKGLEWIGNINPNNGGTTYNQKFEDRVTITVDKSTSTAYMELSSLRSEDTAVYYCAAGWNFDYWGQGTTVTVSS VL: DIQMTQSPSTLSASVGDRVTITCKASQDVGTAVDWYQQKPGQAPKLLIYWASTRHTGVPDRFSGSGSGTDFTLTISRLQPEDFAVYYCQQYNSYPLTFGQGTKVDIK | 0.743 nM | 0.000104 s⁻¹ | 139000 M⁻¹ s⁻¹ |  |  |
| ANT4044-DOTA (antibody, V domains shown) VH: EVQLVQSGAEVKKPGASVKVSCKASGYTFTEYTIHWVRQAPGKGLEWIGNINPNNGGTTYNQKFEDRVTITVDKSTSTAYMELSSLRSEDTAVYYCAAGWNFDYWGQGTTVTVSS VL: DIQMTQSPSTLSASVGDRVTITCKASQDVGTAVDWYQQKPGQAPKLLIYWASTRHTGVPDRFSGSGSGTDFTLTISRLQPEDFAVYYCQQYNSYPLTFGQGTKVDIK |  |  |  | no binding (tested: 12.5 to 50 nM) |  |
| ANT4044 IgG1 (H310A, H435Q) (antibody, V domains shown, VH of ANT4044, as the heavy chain of m1; IgG1 heavy chain constant region with H310A and H435Q; VK of ANT4044, as the light chain of m1; constant region of the light chain is not described, as the light chain of m1; IgG1; Lead construct; the introduction names 'this engineered PSMA antibody' TLX592 without saying which variant is meant; also called modified IgG1 (H310A, H435Q); PK-modified …) VH: EVQLVQSGAEVKKPGASVKVSCKASGYTFTEYTIHWVRQAPGKGLEWIGNINPNNGGTTYNQKFEDRVTITVDKSTSTAYMELSSLRSEDTAVYYCAAGWNFDYWGQGTTVTVSS VL: DIQMTQSPSTLSASVGDRVTITCKASQDVGTAVDWYQQKPGQAPKLLIYWASTRHTGVPDRFSGSGSGTDFTLTISRLQPEDFAVYYCQQYNSYPLTFGQGTKVDIK | 0.737 nM | 7.48e-05 s⁻¹ | 101000 M⁻¹ s⁻¹ |  |  |
| ANT4044-DOTA (antibody, V domains shown, VH of ANT4044, as the heavy chain of m1; VK of ANT4044, as the light chain of m1; constant region of the light chain is not described, as the light chain of m1; source: CHO cells, transiently transfected, purified; conjugated with NHS-DOTA; copies: 2 + 2) VH: EVQLVQSGAEVKKPGASVKVSCKASGYTFTEYTIHWVRQAPGKGLEWIGNINPNNGGTTYNQKFEDRVTITVDKSTSTAYMELSSLRSEDTAVYYCAAGWNFDYWGQGTTVTVSS VL: DIQMTQSPSTLSASVGDRVTITCKASQDVGTAVDWYQQKPGQAPKLLIYWASTRHTGVPDRFSGSGSGTDFTLTISRLQPEDFAVYYCQQYNSYPLTFGQGTKVDIK |  |  |  |  | no binding (tested: 12.5 to 50 nM tested) |
